The values that follow come from article PMC3154423.

Holding throughout (assay): ITC
On the technique in general: In ITC the heat of successive injections is recorded.

In data set [1] the target is Jun bZIP R263A;Fos bZIP R155A (human;human, UniProt P05412;P01100 252-315;137-200, R263A|R155A).
Data set [2] addresses Jun bZIP R263A;Fos bZIP K153A (human;human, UniProt P05412;P01100 252-315;137-200, R263A|K153A).
Data set [3] deals with Jun bZIP K273A;Fos bZIP R158A (human;human, UniProt P05412;P01100 252-315;137-200, K273A|R158A).
Data set [4] has as its target Jun bZIP R263A;Fos bZIP K148A (human;human, UniProt P05412;P01100 252-315;137-200, R263A|K148A).
Data set [5] deals with Jun bZIP R272A;Fos bZIP R144A (human;human, UniProt P05412;P01100 252-315;137-200, R272A|R144A).
The target in data set [6] is Jun bZIP R263A;Fos bZIP R143A (human;human, UniProt P05412;P01100 252-315;137-200, R263A|R143A).
Data set [7] concerns the target Jun bZIP K258A;Fos bZIP R144A (human;human, UniProt P05412;P01100 252-315;137-200, K258A|R144A).
Data set [8] deals with Jun bZIP R270A;Fos bZIP R155A (human;human, UniProt P05412;P01100 252-315;137-200, R270A|R155A).
The target in data set [9] is Jun bZIP K258A;Fos bZIP R146A (human;human, UniProt P05412;P01100 252-315;137-200, K258A|R146A).
The next data set concerns the target Jun-Jun bZIP R272A (human, UniProt P05412 252-315, R272A).
In data set [10] the target is Jun bZIP R261A;Fos bZIP K153A (human;human, UniProt P05412;P01100 252-315;137-200, R261A|K153A).
For data set [11], the target named is Jun bZIP R261A;Fos bZIP R143A (human;human, UniProt P05412;P01100 252-315;137-200, R261A|R143A).
In data set [12] the target is Jun bZIP K273A;Fos bZIP K148A (human;human, UniProt P05412;P01100 252-315;137-200, K273A|K148A).
The target of data set [13] is Jun bZIP R259A;Fos bZIP R146A (human;human, UniProt P05412;P01100 252-315;137-200, R259A|R146A).
For data set [14], the target named is Jun bZIP R261A;Fos bZIP R155A (human;human, UniProt P05412;P01100 252-315;137-200, R261A|R155A).
Data set [15] addresses Jun bZIP K273A;Fos bZIP R144A (human;human, UniProt P05412;P01100 252-315;137-200, K273A|R144A).

Sequence of Jun bZIP R272A;Fos bZIP R144A (P05412 252-315 R272A, chain 1 of 2): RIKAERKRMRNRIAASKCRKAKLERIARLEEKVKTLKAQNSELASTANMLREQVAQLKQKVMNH
Sequence of Jun bZIP R272A;Fos bZIP R144A (P01100 137-200 R144A, chain 2 of 2): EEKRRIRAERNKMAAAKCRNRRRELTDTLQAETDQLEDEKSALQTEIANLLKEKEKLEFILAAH
Sequence of Jun-Jun bZIP R272A (P05412 252-315 R272A): as the sequence (P05412 252-315 R272A, chain 1 of 2) above
Sequence of Jun bZIP R270A;Fos bZIP R155A (P05412 252-315 R270A, chain 1 of 2): as the sequence (P05412 252-315 R272A, chain 1 of 2) above, with R19A, A21R counted along it
Sequence of Jun bZIP R270A;Fos bZIP R155A (P01100 137-200 R155A, chain 2 of 2): as the sequence (P01100 137-200 R144A, chain 2 of 2) above, with A8R, R19A counted along it
Sequence of Jun bZIP R261A;Fos bZIP R143A (P05412 252-315 R261A, chain 1 of 2): as the sequence (P05412 252-315 R272A, chain 1 of 2) above, with R10A, A21R counted along it
Sequence of Jun bZIP R261A;Fos bZIP R143A (P01100 137-200 R143A, chain 2 of 2): as the sequence (P01100 137-200 R144A, chain 2 of 2) above, with R7A, A8R counted along it
Sequence of Jun bZIP R261A;Fos bZIP K153A (P05412 252-315 R261A, chain 1 of 2): as the sequence (P05412 252-315 R272A, chain 1 of 2) above, with R10A, A21R counted along it
Sequence of Jun bZIP R261A;Fos bZIP K153A (P01100 137-200 K153A, chain 2 of 2): as the sequence (P01100 137-200 R144A, chain 2 of 2) above, with A8R, K17A counted along it
Sequence of Jun bZIP R261A;Fos bZIP R155A (P05412 252-315 R261A, chain 1 of 2): as the sequence (P05412 252-315 R272A, chain 1 of 2) above, with R10A, A21R counted along it
Sequence of Jun bZIP R261A;Fos bZIP R155A (P01100 137-200 R155A, chain 2 of 2): as the sequence (P01100 137-200 R144A, chain 2 of 2) above, with A8R, R19A counted along it
Sequence of Jun bZIP R263A;Fos bZIP K153A (P05412 252-315 R263A, chain 1 of 2): as the sequence (P05412 252-315 R272A, chain 1 of 2) above, with R12A, A21R counted along it
Sequence of Jun bZIP R263A;Fos bZIP K153A (P01100 137-200 K153A, chain 2 of 2): as the sequence (P01100 137-200 R144A, chain 2 of 2) above, with A8R, K17A counted along it
Sequence of Jun bZIP R263A;Fos bZIP R155A (P05412 252-315 R263A, chain 1 of 2): as the sequence (P05412 252-315 R272A, chain 1 of 2) above, with R12A, A21R counted along it
Sequence of Jun bZIP R263A;Fos bZIP R155A (P01100 137-200 R155A, chain 2 of 2): as the sequence (P01100 137-200 R144A, chain 2 of 2) above, with A8R, R19A counted along it
Sequence of Jun bZIP R263A;Fos bZIP K148A (P05412 252-315 R263A, chain 1 of 2): as the sequence (P05412 252-315 R272A, chain 1 of 2) above, with R12A, A21R counted along it
Sequence of Jun bZIP R263A;Fos bZIP K148A (P01100 137-200 K148A, chain 2 of 2): as the sequence (P01100 137-200 R144A, chain 2 of 2) above, with A8R, K12A counted along it
Sequence of Jun bZIP R263A;Fos bZIP R143A (P05412 252-315 R263A, chain 1 of 2): as the sequence (P05412 252-315 R272A, chain 1 of 2) above, with R12A, A21R counted along it
Sequence of Jun bZIP R263A;Fos bZIP R143A (P01100 137-200 R143A, chain 2 of 2): as the sequence (P01100 137-200 R144A, chain 2 of 2) above, with R7A, A8R counted along it
Sequence of Jun bZIP K258A;Fos bZIP R144A (P05412 252-315 K258A, chain 1 of 2): as the sequence (P05412 252-315 R272A, chain 1 of 2) above, with K7A, A21R counted along it
Sequence of Jun bZIP K258A;Fos bZIP R144A (P01100 137-200 R144A, chain 2 of 2): as the sequence (P01100 137-200 R144A, chain 2 of 2) above
Sequence of Jun bZIP K258A;Fos bZIP R146A (P05412 252-315 K258A, chain 1 of 2): as the sequence (P05412 252-315 R272A, chain 1 of 2) above, with K7A, A21R counted along it
Sequence of Jun bZIP K258A;Fos bZIP R146A (P01100 137-200 R146A, chain 2 of 2): as the sequence (P01100 137-200 R144A, chain 2 of 2) above, with A8R, R10A counted along it
Sequence of Jun bZIP K273A;Fos bZIP R158A (P05412 252-315 K273A, chain 1 of 2): as the sequence (P05412 252-315 R272A, chain 1 of 2) above, with A21R, K22A counted along it
Sequence of Jun bZIP K273A;Fos bZIP R158A (P01100 137-200 R158A, chain 2 of 2): as the sequence (P01100 137-200 R144A, chain 2 of 2) above, with A8R, R22A counted along it
Sequence of Jun bZIP K273A;Fos bZIP R144A (P05412 252-315 K273A, chain 1 of 2): as the sequence (P05412 252-315 R272A, chain 1 of 2) above, with A21R, K22A counted along it
Sequence of Jun bZIP K273A;Fos bZIP R144A (P01100 137-200 R144A, chain 2 of 2): as the sequence (P01100 137-200 R144A, chain 2 of 2) above
Sequence of Jun bZIP K273A;Fos bZIP K148A (P05412 252-315 K273A, chain 1 of 2): as the sequence (P05412 252-315 R272A, chain 1 of 2) above, with A21R, K22A counted along it
Sequence of Jun bZIP K273A;Fos bZIP K148A (P01100 137-200 K148A, chain 2 of 2): as the sequence (P01100 137-200 R144A, chain 2 of 2) above, with A8R, K12A counted along it
Sequence of Jun bZIP R259A;Fos bZIP R146A (P05412 252-315 R259A, chain 1 of 2): as the sequence (P05412 252-315 R272A, chain 1 of 2) above, with R8A, A21R counted along it
Sequence of Jun bZIP R259A;Fos bZIP R146A (P01100 137-200 R146A, chain 2 of 2): as the sequence (P01100 137-200 R144A, chain 2 of 2) above, with A8R, R10A counted along it

B1: TRE duplex 15-mer (dsDNA)
DNA 1: CGCGTGACTCACCCC
DNA 2: GGGGTGAGTCACGCG
What is called Kd is the free concentration of one partner at which half of the binding sites on the other are occupied at equilibrium, for simple one-to-one binding. Take B1: the Kd is 3880 ± 90 nM in [1]; 1150 ± 80 nM in data set [2]; 680 ± 30 nM in [3]; 1130 ± 10 nM in [4]; 3720 ± 360 nM in data set [5]; 2250 ± 50 nM in data set [6]. The Kd was 2780 ± 50 nM in data set [7]; 28900 ± 470 nM in [8]; 660 ± 10 nM in data set [9]; 490 ± 40 nM with Jun-Jun bZIP R272A; 610 ± 50 nM in [10]; 1030 ± 50 nM in data set [11]. For the same molecule, the Kd was found to be 760 ± 10 nM in data set [12], 2260 ± 140 nM in data set [13], 2460 ± 30 nM in data set [14] and 3590 ± 300 nM in data set [15].
